Here are results for twelve proteins from US11491212.

The target of the series is Factor X (FX), P00742.
Factor X (FX), P00742, sequence (P00742 whole entry, looked up): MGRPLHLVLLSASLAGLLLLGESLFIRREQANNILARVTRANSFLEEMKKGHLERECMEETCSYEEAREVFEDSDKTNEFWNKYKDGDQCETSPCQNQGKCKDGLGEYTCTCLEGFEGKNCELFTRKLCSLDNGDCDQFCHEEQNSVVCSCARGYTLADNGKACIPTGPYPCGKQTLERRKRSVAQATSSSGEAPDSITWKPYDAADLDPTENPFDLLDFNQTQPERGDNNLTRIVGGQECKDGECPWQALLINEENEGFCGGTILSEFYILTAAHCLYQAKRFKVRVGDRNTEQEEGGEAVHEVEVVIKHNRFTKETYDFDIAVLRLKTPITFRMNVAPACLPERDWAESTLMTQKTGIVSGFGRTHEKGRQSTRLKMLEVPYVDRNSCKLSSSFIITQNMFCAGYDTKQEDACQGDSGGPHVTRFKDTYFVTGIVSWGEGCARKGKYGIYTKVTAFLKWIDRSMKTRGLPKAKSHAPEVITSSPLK

B1: FIXa-D104N/K106S/K247N/N249S/N260S (protein)
chain 1: not shown
chain 2: not shown
On to B1, for which the “% of WT kcat/KM (against Catalyst Biosciences WT FIXa), FX activation in the Xase complex” value (shortened to “% of WT kcat/KM … in the Xase complex”) is 22%; the Michaelis-Menten constant (KM) (in general, the concentration of substrate that gives half-maximal velocity) came to 0.0612 µM; the KM (nM) for activation of FX by FIXa in the Xase complex (FVIIIa, PC/PS vesicles, Ca2+), fluorogenic Spectrafluor FXa assay stood at 61.2 nM; the kcat/KM for FX activation by FIXa in the Xase complex (FVIIIa, PC/PS vesicles, Ca2+), indirect fluorogenic Spectrafluor FXa assay amounted to 9.8e+06 M⁻¹ s⁻¹.

B2: FIXa-Y155F/K247N/N249S/R318Y/R403E/E410N (protein)
chain 1: not shown
chain 2: not shown
Turning to B2, the Michaelis constant (KM) stood at 0.125 µM.

B3: FIXa-R318Y/R338E/R403E/T412A (protein)
chain 1: not shown
chain 2: not shown
On to B3, for which the KM came to 0.0675 µM.

B4: FIXa-R318Y/R338E/T412A (protein)
chain 1: not shown
chain 2: not shown
Regarding B4, the “% of WT kcat/KM … in the Xase complex” value is listed as 661%; the KM was 0.0235 µM; the kcat/KM for FX activation by FIXa in the Xase complex (FVIIIa, PC/PS vesicles, Ca2+), indirect fluorogenic Spectrafluor FXa assay was found to be 3e+08 M⁻¹ s⁻¹.

B5: FIXa-Y155F/R318Y/R338E/N346D/R403E/E410N (protein)
chain 1: not shown
chain 2: not shown
Turning to B5, the “% of WT kcat/KM … in the Xase complex” value is 139%; the Michaelis-Menten constant (KM) was 0.1 µM; the KM (nM) for activation of FX by FIXa in the Xase complex (FVIIIa, PC/PS vesicles, Ca2+), fluorogenic Spectrafluor FXa assay turned out to be 100 nM; the kcat/KM for FX activation by FIXa in the Xase complex (FVIIIa, PC/PS vesicles, Ca2+), indirect fluorogenic Spectrafluor FXa assay was determined as 6.2e+07 M⁻¹ s⁻¹.

B6: FIXa-Y155F/R338E/R403E/E410N (protein)
chain 1: not shown
chain 2: not shown
On to B6, for which the Michaelis-Menten constant (KM) was 0.0336 µM.

B7: FIXa-A103N/N105S/K247N/N249S/R318Y/R338E/R403E/E410N (protein)
chain 1: not shown
chain 2: not shown
Regarding B7, the “% of WT kcat/KM (against Catalyst Biosciences WT FIXa)” value stood at 324%; the KM is 0.028 µM; the kcat/KM for activation of FX by FIXa in the Xase complex (FVIIIa, PC/PS vesicles, Ca2+), fluorogenic Spectrafluor FXa read-out was found to be 1.5e+08 M⁻¹ s⁻¹.

B8: FIXa-Y155F/K228N/K247N/N249S (protein)
chain 1: not shown
chain 2: not shown
As for B8, the “% of WT kcat/KM (against Catalyst Biosciences WT FIXa)” value is reported as 115%; the Michaelis-Menten constant (KM) came to 0.0792 µM; the kcat/KM for activation of FX by FIXa in the Xase complex (FVIIIa, PC/PS vesicles, Ca2+), fluorogenic Spectrafluor FXa read-out stood at 5.3e+07 M⁻¹ s⁻¹.

B9: FIXa-D104N/K106S/Y155F/K247N/N249S/N260S (protein)
chain 1: not shown
chain 2: not shown
For B9, the “% of WT kcat/KM … in the Xase complex” value worked out at 18%; the Michaelis-Menten constant (KM) turned out to be 0.0685 µM; the KM (nM) for activation of FX by FIXa in the Xase complex (FVIIIa, PC/PS vesicles, Ca2+), fluorogenic Spectrafluor FXa assay was found to be 68.5 nM; the kcat/KM for FX activation by FIXa in the Xase complex (FVIIIa, PC/PS vesicles, Ca2+), indirect fluorogenic Spectrafluor FXa assay worked out at 8.2e+06 M⁻¹ s⁻¹.

B10: FIXa-N260S/R318Y/R338E/R403E/E410N (protein)
chain 1: not shown
chain 2: not shown
In the case of B10, the “% of WT kcat/KM … in the Xase complex” value stood at 117%; the KM is 0.0724 µM; the kcat/KM for FX activation by FIXa in the Xase complex (FVIIIa, PC/PS vesicles, Ca2+), indirect fluorogenic Spectrafluor FXa assay turned out to be 5.3e+07 M⁻¹ s⁻¹.

B11: FIXa-Y155F/K247N/N249S/N260S (protein)
chain 1: not shown
chain 2: not shown
Consider B11, for which the “% of WT kcat/KM … in the Xase complex” value is 43%; the Michaelis constant (KM) was 0.0965 µM; the KM (nM) for activation of FX by FIXa in the Xase complex (FVIIIa, PC/PS vesicles, Ca2+), fluorogenic Spectrafluor FXa assay is 96.5 nM; the kcat/KM for FX activation by FIXa in the Xase complex (FVIIIa, PC/PS vesicles, Ca2+), indirect fluorogenic Spectrafluor FXa assay worked out at 1.9e+07 M⁻¹ s⁻¹.

B12: FIXa-K247N/N249S/R318Y/R403E/E410N (protein)
chain 1: not shown
chain 2: not shown
Take B12: the Michaelis constant (KM) was 0.111 µM.
